{"source": "patent US20160039883A1", "about": "(AstraZeneca / MedImmune, published 2016)", "binders": {"B1": {"name": "palivizumab (antibody, V domains shown)", "VH": "QVTLRESGPALVKPTQTLTLTCTFSGFSLSTSGMSVGWIRQPPGKALEWLADIWWDDKKDYNPSLKSRLTISKDTSKNQVVLKVTNMDPADTATYYCARSMITNWYFDVWGAGTTVTVSS", "VL": "DIQMTQSPSTLSASVGDRVTITCKCQLSVGYMHWYQQKPGKAPKLLIYDTSKLASGVPSRFSGSGSGTEFTLTISSLQPDDFATYYCFQGSGYPFTFGGGTKLEIK"}}, "key": {"[1]": {"biological_target": "RSV fusion (F) protein on RSV virus (respiratory syncytial virus, UniProt P03420 26-574)", "test": "cell-based or functional assay"}, "[2]": {"biological_target": "VLP059", "test": "ELISA, VLP-coated wells, 0.5 µg/ml palivizumab, OD relative to sF-coated wells"}, "[3]": {"biological_target": "VLP097", "test": "ELISA, VLP-coated wells, 0.5 µg/ml palivizumab, OD relative to sF-coated wells"}, "[4]": {"biological_target": "VLP098", "test": "ELISA, VLP-coated wells, 0.5 µg/ml palivizumab, OD relative to sF-coated wells"}, "[5]": {"biological_target": "VLP099", "test": "ELISA, VLP-coated wells, 0.5 µg/ml palivizumab, OD relative to sF-coated wells"}, "[6]": {"biological_target": "VLP019", "test": "ELISA, VLP-coated wells, 0.5 µg/ml palivizumab, OD relative to sF-coated wells"}}}
{"binder": "B1", "values": [{"measurement": "PRNT as measured by the IC50 point", "setting": "[1]", "result": "~0.5", "unit": "µg/mL"}, {"measurement": "Palivizumab binding in vitro (sF = 100%)", "setting": "[2]", "result": 83, "unit": "%"}, {"measurement": "Palivizumab binding in vitro (sF = 100%)", "setting": "[3]", "result": 112, "unit": "%"}, {"measurement": "Palivizumab binding in vitro (sF = 100%)", "setting": "[4]", "result": 47, "unit": "%"}, {"measurement": "Palivizumab binding in vitro (sF = 100%)", "setting": "[5]", "result": 95, "unit": "%"}, {"measurement": "Palivizumab binding in vitro (sF = 100%)", "setting": "[6]", "result": 100, "unit": "%"}]}
